# The nanobody polyreactivity screen of Harvey et al. (2022)
# Assay: yeast display, Sf9 membrane polyspecificity reagent, FACS + sequencing; frameworks hold sequencing errors
# Summary of the method: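 Nanobodies from a synthetic yeast display library (Saccharomyces cerevisiae BJ5465), induced 36–48 hours with galactose, were stained 1 hour at 4 °C with 10% biotinylated, detergent-solubilized Sf9 membrane reagent, enriched on streptavidin microbeads, then FACS-sorted. Anti-HA (expression) and streptavidin (reagent binding) fluorescence set low and high (top ~1%) gates. Polyreactivity labels come from the gate of origin. Genes were colony-PCR amplified, MiSeq 2 × 250 sequenced and filtered by CDR length.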
row,Sequence,polyreactivity (PSR sort gate)
1,QVQLVESGGGLVQAGGSLRLSCAASGSIFRRYAMGWYRQAPGKERELVAAISSNGGSTYYADSVKGRFTISRDNAKNTVYLQMNSLKPEDTAVYYCNAPPLYRDEYWGQGTQVTVSS,high polyreactivity
2,QVQLVESGGGLVQAGGSLRLSCAASGSTLYKYAMGWYRQAPGKERELVAAISWSGSSTYYADSVKGRFTISRDNAKNTVYLQMNSLKPEDTAVYYCAAYPRPYIGYTDGYVWYEFDYWGQGTQVTVSS,low polyreactivity
3,QVQLVESGGGLVQAGGSLRLSCAASGSIFDVNAMGWYRQAPGKESELVAAISDSGGSTYYADSVKGRFTISRDNAKTTVYLQMTSLKQEDTAVYYCNADWSWYNYYDFDYWGQGTQVTVSS,low polyreactivity
4,QVQLVESGGGLVQAGGSLRLSCAASGSTFAYNAMGGYRKAPGKERELVATISTDGSTYADSVKGRFTISRDNAKNTVYLQMNSLKPEDTAVYYCNADGHPSDPGYDYWGQGTHVTVSS,low polyreactivity
5,QVQLVESGGGLVQAGGSLRLSCAASGSIFYLYAMGWYRQEPGKERELVAAITSGDSTTYADSVKGRFTISRDNAKNTVYLQMNSLIPEDTAVYYCAADWPGLVGYHNSAENDYWGQGTQVTVSS,low polyreactivity
6,QVQLVESGGGLVQAGGSLRLSCAASGSIFGVYAMGWYRQAPGKERELVARISGSSGSTRYSDSVKGRFTISRDNAKNTVYLQMNSLKPEDTAVYYCAARAIFRQGDRIYDSWGQGTQVTVSS,high polyreactivity
7,QVQLVESGGGLVQAGGILRLSCAASGSIFPYYAMGWYRQAPGKERELVAGITSGTRTNYADSVKGRFTISRDNAKNTVYLQMNSLKPEDTAVYYCAKEAHIWGYPDYEYWGQGSQVTVSS,high polyreactivity
8,QVQLVESGGGLVQAGGSLRLSCAASGNTLHRYVMGWYRPAPGKERELVAVITRGTSTYYADSVKGRFTISRDNAKNTVYLQMNSLKPEDTAVYYCAARYTFPYSRYDYWGQGTQVTVSS,low polyreactivity
9,QVQLVESGGGLVQAGGSLRLSCDASGRTSRWNAMGCYRQAPGKERELVAAISSGSSTTYADSVKGRFTISRDNAKNTVYLQMNSLKPEATAVYYCNAKSGSRFVYRRYYTYNSWGQGTQVTVSS,high polyreactivity
10,QVQLVESGGGLVQAGGSLRLTCAASGFIFLPYAMGWYRQAPGKERELVAAITRGGRTYYADSVKGRFTISRDNAKNTVYLQMNSLKPEDTAVYYCAATTYLVWGYNYWGQGTQVTVSS,low polyreactivity
11,QVQLVESGGGLVQAGGSLRLSCAASGRIFGQYAMGWYRQAPGKERELVAAITYSTGSTSYADSVKGRFTISRDNAKNTVYLQMNSLKPEDTAVYYCATRKPSVRGVIPTRNSYYYWGQGTQVTVSS,high polyreactivity
12,QVQLVESGGGLVQAGGSLRLSCAASGSTFSNYAMGGYRQAPGKERELVAAITSGGTTNYADSVKGRFTISRDNAKNTVYLQMNSLKPEDTAVYYCAKRYSYHVPTHIWVEYYYWGQGTQVTVSS,low polyreactivity
13,QVQLVESGGGLVQAGGSLRLTCAASGNTFVSNAMGWYRQAPGKERELVAAIDSGGSTNYADSVKGRFTISRDNAKNTVYLQMNSLKPEDTAVYYCNRTSVYYYYWGQGTQVTVSS,low polyreactivity
14,QVQLVESGGGLVQAGGSLRLSCAASGRTFPLYDMGWYRQAPGKERELVAAISLSGGRTYYADSVKGRFTISRDNAKNTVYLQMNSLKPEDTAVYYCAARGTLSAQVGIRRYDYWGQGTQVTVSS,low polyreactivity
15,QVQLVESGGGLVQAGGSLRLSCAASGSIFGRYVMGWYRQAPGTDRELVAAISGSGTSTYYADSVKGRFTISRDNAKNTVYLQMNSLKPEDTAVYYCAARDIKSSHDYDYWGQGTQVTVSS,low polyreactivity
16,QVQLVESGGGLVQAGGSLRLSCASSGSTFNSYAMGWYRQAPGKERELVAAISWSGGSTYYADSVKGRFTISRDNAKNTVYLQMNSLKPEDTAVYYCNADYWWEYAYVVDYWGQGTQVTVSS,low polyreactivity
17,QVQLVESGGGLVQAGGTLRLSCAASGRTFGFYAMGWYRQAPGKERELVAVITRGGYTSYADSVKGRFTISRDNAKNTVYLQMNSLKPEDTAVYYCAAGWHYWDHRYDYWGQGTQVTVSS,high polyreactivity
18,QVQLVESGGGLVQAGGSLRLSCAASGSTFVVNAMGWYRQAPGKERELVAAITQSGGSTFYADSVKGRFTISRDNAKNTVYFQMNSLKPEDTAVYYWGQGTQVTVSS,low polyreactivity
19,QDQLVDSGGGLLQAGGSLRLSCAASGRIFVWNTMGWYRQAPGKERELVAAITSGGSTTFADSVKGRFTISRDNAKYTVYLQMNSLKPEDTAVYYCNTELDLYHPGDDYWGQGTQVTVSS,high polyreactivity
20,QVQLQESGGGLVQAGGSLRLSCAASGSIAHYIFMGWYRQAPGKEREFVAGIGYGGTTNYADSVKGRFTISRDNAKNTVYLQMNSLKPEDTAMYYCAAREATEFYLYYWGQGTQVTVSS,low polyreactivity
21,QVQLVESGGGLVQAGGSLRLSCAASGSIFYTYTMGWYRQAPGKERELVAAISWSGGSTYYADSVKGRFTISRDNAKNTVYLQMISLKPEDTAVYYCAAYGTGYYGYDYWGQGTQVTVSS,low polyreactivity
22,QVQLVESGGGLVQAGGSLRLSGAASGIIVPDYAMGWNKQAPGKERELVPDISFSAGSTYYADSVKGRFTISRDNAKNTVYLQMNSLKPDDTAVYVCAADQTSSYYDPWGDYWGQGTQVTVSS,low polyreactivity

row,Sequence,polyreactivity (PSR sort gate)
1,QVQLVESGGGLVQAGGRLRLSCAASGFTFIRSAMGWYRQAPGKERELVAAISWSDDTTYYADSVKGRFTISRDNAKNTVYLQMNSLKPEDTAVYYCAAEVWYSYAEYDYWGQGTQVTVSS,high polyreactivity
2,QVQLVESGGGLVQAGGSLRLSCAASGIIFRWYAMGWYRQAPGKERELVAAITRSGGSTYYADSVKGRFTISRDNAKNTVYLQMNSLKPEDTAVYYCAAEYYAPSYKFDYWGQGTQVTVSS,high polyreactivity
3,QVQLVESGGGLVQAGGSLRLSCAASGITFPLYAMGWYRKAPGKERELVATISGRGGSTYYADYVKGRFTISRDNAKNTVYLQMNSLIPEDTAVYYCNADFRSPYFLLSWYHSGDYWGLGTQVTVSS,low polyreactivity
4,QVQLVESGGGLVQAGGSLRLSCAASGSTLSDYVMGWYRQAPGKERELVAAITSGGSTSYADSVKGRFTISRDNAKNTVYLQMNSLKPEDTAVYYCNATLLFPLLYGPESGEFDYWGQGTQVTVSS,low polyreactivity
5,QDQLVESGGGIVQEGGSLRLSCAASGLIFRVYAMGWYRQAPGKEWELVATITRGGRTYYADSVKGRFTISRDNAKNTVYLQMNSLKPEDTAVSYCAVLSVRRSYNYWGQGTQVTVSS,high polyreactivity
6,QVKLVESGGGLVQAGGSLRLSCAASGFTIQRYAMGWYRQAPGKERELVAAITSGGSTYYADSVKGRFTISRDNAKNTVYLQMNSLKPEDTAVYYCATRAVWSSWGRRYDSWGQGTQVTVSS,high polyreactivity
7,QVQLVESGGGLVQAGGSLRLSCAASGRTFHVYAMGWYRQAPGKERELVAAITWSGDSTYYADSVKGRFTISRDNAKNTVYLQMNSLNTEDTAVYYCAASKFWKYDYWGQGTQVTVSS,low polyreactivity
8,QVQLVESGGGLVQAGGSLRLSCAASGFTFYSNSMGWYRQAPGKERELVAAISSGGGTTYYADSVKGRFTISRDNAKNTVYLQMNSLKPEYTAVYYCAAGLSFFRSYSGFYYWGQGTQVTVSS,low polyreactivity
9,QVQLVESGGGLVQAGGSLRLSCAASGFTFRKNAMGWYRQAPGKERELVAAIRGSAGSTYYADSVKGRFTISRDNAKNTVYLQMNSLKPEDTAVSYCATGGYPSLWDGYGYWGQGTQVTVSS,low polyreactivity
10,QVQLVESGGGLVQAGGSLRLSCAASGSIFGYYAMGWYRQAPGKERELVAAISRRGGRTYYADSVKGRFTISRDNAKNTVYLQMNSLKPEDTAVYYCAAAVSVSASPYTGFDYWGQGTQVTVSS,high polyreactivity
11,QDQLVESGGGLVQAGGSLSLSCAASGSTFQPYTMGWYRQAPGKERELVAAITGRGGSTYYADSVKGRFTISRDNAKNTVYLQMNSLKPEDTAVYYCAAGAYRRNKSDYYYWGQGTQVTVSS,low polyreactivity
12,QVQLVESGGGLVQAGGSLRLSSAASGITYYGYAMGWYRQAPGKERELVAAISKSGGSTHYADSVKGRFTISRDNAINTVYLQMYRLKPEDTAVYYCAAAYWTRLRRMDYWGQGTQVTVSS,low polyreactivity
13,QVQLVESGGALVQAGGSLRLSCAASGSIFIHYAMGWSRQAPGKERELVAAISRTGSTYYADSVKGRFTISRDNAKNTVYLQMNSLKPLDTAVYYCAKRISTRRYDFWGQGTQVTVSS,low polyreactivity
14,QVQLVESGGGLVQAGGSLRLSCAASGIISSVYAMGWYRQAPGKERELVAAISGSGGSTYYADSVKGRFTISRDNAKNTVYLQMNSQKPEDTAVYYCSKGYQYQGNSYGYWGQGTQVTVSS,low polyreactivity
15,QVQLVESGGGLVQAGGSLRLSCAASGSIFDRNAMGWYRQAPGKERELVSAISRGGRTYYADSVKGRFTISRDNAKNTVYLQMNSLKPEDTAVYDCAAGYPSAWAYTTDDYWGQGTQVTVSS,low polyreactivity
16,QVQLVESGGGLVQAGGSLRLSCAASGSIFSLYAMGWYRQAPGKERELVAAITTSGGRTYYADSVKGRFTISRDNAKNTVYLQMNSLKPVDTAVYYCAKRYSTPYLTDNFLSGPGYYYWGQGTQVTVSS,high polyreactivity
17,QVQLVESGGGLVQAGGSLRLSCAASGFNFAFYDMGWYRQAPGKERELVAAISWGGSTYYADSVKGRFTISRDNAKNTVYLQMNRLKPEDTAVYYCAARLSRSYRYGYWGQGTQVTVSS,high polyreactivity
18,QVQLVESGGGLVQAGGSLRLSCAPSGFIFSRYAMGWYRQAPGKERELVATITSSGGSTYYADSVKGRFTISRDNAKNTVYLQMNSLKPEDTAVYYCNAKISIRWHYGYYYWGQGTQVTVSS,high polyreactivity
19,QVQLVESGGGLVQAGGSLRLSCAASGFTFTRYAMGWYRQAPGKERELVAAISSSGGSTYYADSVKGRFTISRDNAKNTVYLQMNSLKPEDTAVYYCNKNWPRLYYYWGQGTQVTVSS,high polyreactivity
20,QVQLVESGGGLVQAGGSLRLSCAASGSIFDYYTMGWYRQAPGKERELVASITQSGGSTYYADSVKGRFTISRDNAKNTVYLQMNSLKPEDTAVYYCAADFSIVKMDYWGQGTQVTVSS,low polyreactivity
21,QVQLVESAAGLVQAGGSLRISCAASGYTFWLYAMGWYRQAPGKEREFVAAISTSGGSTYADSVKGRFTISRDNAKNTVYLQMNSLKPEDTAVYYCNAGYLLYYDYHLFYWGQGTQVTVSS,low polyreactivity
